The source of these data is US20050002930A1.

For this assay, the target named is α5β1 integrin on CD14+ blood monocytes of the dosed animals. Description: FACS occupancy on blood monocytes compared with serum levels of M200.

B1: M200 chimeric (mouse/human IgG4) anti-α5β1 integrin antibody (antibody, V domains shown)
VH: QVQLKESGPGLVAPSQSLSITCTISGFSLTDYGVHWVRQPPGKGLEWLVVIWSDGSSTYNSALKSRMTIRKDNSKSQVFLIMNSLQTDDSAMYYCARHGTYYGMTTTGDALDYWGQGTSVTVSS
VL: QIVLTQSPAIMSASLGERVTMTCTASSSVSSNYLHWYQQKPGSAPNLWIYSTSNLASGVPARFSGSGSGTSYSLTISSMEAEDAATYYCHQYLRSPPTFGGGTKLEIKR
Molecule B1 registered a serum concentration sufficient to completely saturate monocyte α5β1 integrin binding sites of 60 µg/mL.
